Reference: publication PMC6415305 (Molecular cell, 2019)

Target: Recombinant His-tagged S6K1 T389E/S424D/S429D (S6K1*), in vitro translated (human, UniProt P23443-2 1-502, T389E | S424D | S429D)
Test: SPR

Chain of Recombinant His-tagged S6K1 T389E/S424D/S429D (S6K1*), in vitro translated (P23443 24-525 T412E/S447D/S452D): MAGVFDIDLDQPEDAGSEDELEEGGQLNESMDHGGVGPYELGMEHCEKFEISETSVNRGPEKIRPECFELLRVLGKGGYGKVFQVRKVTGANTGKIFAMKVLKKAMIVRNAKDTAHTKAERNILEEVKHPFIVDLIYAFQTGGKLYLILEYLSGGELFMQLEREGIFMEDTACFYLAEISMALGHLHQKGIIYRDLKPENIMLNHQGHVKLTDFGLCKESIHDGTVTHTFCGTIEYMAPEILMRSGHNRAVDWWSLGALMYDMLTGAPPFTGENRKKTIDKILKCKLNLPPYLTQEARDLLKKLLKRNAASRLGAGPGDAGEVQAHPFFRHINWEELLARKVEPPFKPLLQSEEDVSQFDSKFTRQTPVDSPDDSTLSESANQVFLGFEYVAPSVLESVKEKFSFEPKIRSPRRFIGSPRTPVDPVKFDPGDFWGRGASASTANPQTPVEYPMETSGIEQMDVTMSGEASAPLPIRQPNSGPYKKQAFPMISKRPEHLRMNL

- Kd: 56 nM
B1: EPRS linker (Pro683 to Asn1023 of human glutamyl-prolyl tRNA synthetase), His tag removed (domain or fragment, UniProt P07814 683-1023, looked up)
chain: PYEPVSPYSCKEAPCVLIYIPDGHTKEMPTSGSKEKTKVEATKNETSAPFKERPTPSLNNNCTTSEDSLVLYNRVAVQGDVVRELKAKKAPKEDVDAAVKQLLSLKAEYKEKTGQEYKPGNPPAEIGQNISSNSSASILESKSLYDEVAAQGEVVRKLKAEKSPKAKINEAVECLLSLKAQYKEKTGKEYIPGQPPLSQSSDSSPTRNSEPAGLETPEAKVLFDKVASQGEVVRKLKTEKAPKDQVDIAVQELLQLKAQYKSLIGVEYKPVSATGAEDKDKKKKEKENKSEKQNKPQKQNDGQRKDPSKNQGGGLSSSGAGEGQGPKKQTRLGLEAKKEEN
